Data as given in patent US20150118238A1 (Eli Lilly, published 2015).
Numbering of substitutions follows the chain as printed.

B1: Antibody I (antibody, V domains shown)
VH: EVQLQQSGTVLARPGASVKMSCKASGYSFTSYWMYWVKQRPGQGLEWIGGFHPGNSGTNYNQKFKGKAKLTAVTSASTAYMELSSLTNEDSAVYYCTRGYYYDGSFTYWGQGTLVTVSA
VL: EIQMTQSPASLSASVGETVTITCRASENIYSYLAWYQRKQGRSPQLLVYNAKPLAEGVPSRFSGSGSGTQFSLKINSLQPEDFGTYYCQHHYGTPFTFGSGTRLEIKR
notes: Captured by anti-mouse Fc and detected with anti-mouse IgG; also called R-PE-Antibody I (R-phycoerythrin conjugate used in the CTC assay)
B2: Antibody II (antibody, V domains shown)
VH: B1 VH with G54R
VL: B1 VL
notes: also called R-PE-Antibody II (R-phycoerythrin conjugate used in the CTC assay); Antibody II (Anti-cMET)

Key:
human c-Met-ECD-Fc-Flis [1] = molecular target: T1, human c-Met-ECD-Fc-Flis (human); test: SPR (BIAcore), antibody captured by goat anti-mouse Fc, c-Met-ECD-Fc-Flis as analyte, 25 C, 1:1 model, n=2
T1 construct: Expressed in CHO cells; also called c-Met-ECD with Fc and Flis tag; ECD of human c-MET

[2] = molecular target: T2, RON on RON-transfected NIH 3T3 cells (UniProt Q04912 25-1400, limits assumed); test: IHC on FFPE cell microarray (Dako EnVision FLEX+), manual reading by brightfield microscope
T2 construct: whole, on cells; Formalin-fixed paraffin-embedded cell pellets in IHC; also called RON transfected NIH3T3 Cell Line
From the text: For staining human tumor cell lines, 60 million cells may be harvested, formalin-fixed, and processed into histogel. The histogel cell pellets may be embedded into paraffin blocks, cored, and designed into a cell microarray that may be re-embedded in a paraffin block and then microtomed onto slides. These slides may be immunohistochemically stained and counterstained using the IHC assay protocol as described above in Example 7. RON-transfected NIH 3T3 cells and mock NIH 3T3 cells (mouse embryonic fibroblasts) are used as non-c-MET expressing negative controls.

human c-Met-ECD-Fc-Flis [3] = molecular target: T1, human c-Met-ECD-Fc-Flis; test: SPR (BIAcore)
[4] = molecular target: T3, ECD of human RON (R&D Systems, #1947-MS-050) (human, UniProt Q04912 25-957); test: IHC pre-absorption/blocking: Antibody II at 2 microgram/mL incubated overnight with RON ECD, then used to stain slides
T3 construct: extracellular domain; Bought reagent; also called MST1R
Method: The antibody, or antigen-binding fragment thereof, of the present invention at 2 microgram/mL may be incubated overnight with either c-Met-ECD-Fc-Flis (SEQ ID NO: 23) or the ECD of human RON (R&D Systems, #1947-MS-050) at 200× molar excess on a rotator at 4° C. After overnight incubation, the antibody, or antigen-binding fragment thereof, of the present invention may be tested against slides of human tissue or cancer cell lines as described above in Example 6.

T1 sequence (chain, as listed by the source limits assumed): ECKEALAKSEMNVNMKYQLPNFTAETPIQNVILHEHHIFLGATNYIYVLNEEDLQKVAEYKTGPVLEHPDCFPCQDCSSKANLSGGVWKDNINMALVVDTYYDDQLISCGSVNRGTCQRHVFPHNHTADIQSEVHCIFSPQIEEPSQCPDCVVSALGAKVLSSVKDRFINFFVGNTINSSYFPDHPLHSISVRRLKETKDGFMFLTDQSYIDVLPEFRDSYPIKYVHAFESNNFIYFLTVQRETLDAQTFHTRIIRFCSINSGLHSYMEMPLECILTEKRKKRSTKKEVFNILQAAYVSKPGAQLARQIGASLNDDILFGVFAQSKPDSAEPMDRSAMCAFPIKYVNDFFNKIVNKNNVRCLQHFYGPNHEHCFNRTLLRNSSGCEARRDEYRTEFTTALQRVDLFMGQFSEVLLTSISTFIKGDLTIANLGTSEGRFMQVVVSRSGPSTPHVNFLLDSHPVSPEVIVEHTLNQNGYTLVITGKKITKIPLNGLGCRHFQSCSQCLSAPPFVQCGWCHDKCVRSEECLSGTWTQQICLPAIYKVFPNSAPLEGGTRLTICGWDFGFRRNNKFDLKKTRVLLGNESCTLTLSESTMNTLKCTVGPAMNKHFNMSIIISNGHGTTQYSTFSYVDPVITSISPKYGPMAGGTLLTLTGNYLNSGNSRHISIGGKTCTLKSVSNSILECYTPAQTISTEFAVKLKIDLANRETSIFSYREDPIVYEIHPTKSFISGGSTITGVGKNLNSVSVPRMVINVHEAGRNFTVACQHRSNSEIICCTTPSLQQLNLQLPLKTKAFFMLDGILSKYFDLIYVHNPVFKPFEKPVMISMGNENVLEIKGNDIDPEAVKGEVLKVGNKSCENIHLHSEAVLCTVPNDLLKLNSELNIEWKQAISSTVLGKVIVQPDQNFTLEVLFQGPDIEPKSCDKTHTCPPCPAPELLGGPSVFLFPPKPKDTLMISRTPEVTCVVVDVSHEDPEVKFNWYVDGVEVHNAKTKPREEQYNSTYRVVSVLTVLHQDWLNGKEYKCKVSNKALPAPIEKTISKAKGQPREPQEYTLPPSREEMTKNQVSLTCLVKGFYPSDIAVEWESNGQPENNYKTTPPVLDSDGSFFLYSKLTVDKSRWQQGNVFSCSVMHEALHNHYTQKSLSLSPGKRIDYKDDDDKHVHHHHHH

Row | Binder | Kd (human c-Met-ECD-Fc-Flis [1]) [nM] | koff (human c-Met-ECD-Fc-Flis [1]) [s⁻¹] | kon (human c-Met-ECD-Fc-Flis [1]) [M⁻¹ s⁻¹] | binding result [2] | fold binding affinity compared to Antibody I (human c-Met-ECD-Fc-Flis [3]) [fold] | binding result [4]
1 | B1 | 2.47 | 0.000302 | 123000 | – | – | –
2 | B2 | 0.37 | 4.6e-05 | 125000 | no binding (tested: 2 µg/mL) | > 5 | no binding (tested: 200× molar excess)
